These results are taken from paper PMC10683072 (2023).

The target of assay [1] is T1, KQTSV peptide.
T1 chain: KQTSV
As to the kind of experiment: diffusion lag time measurement with labeled peptide (Figure S12).

Assay [2] deals with T2, KQTSV peptide (tandem dimer of PDZ3).
T2 chain: KQTSV
Described as above.

B1: PDZ3 PDZ3 (protein)
chain: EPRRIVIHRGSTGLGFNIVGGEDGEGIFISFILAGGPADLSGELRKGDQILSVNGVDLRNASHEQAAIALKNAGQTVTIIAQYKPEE
Take B1: the equilibrium dissociation constant (Kd) with KQTSV peptide [1] stood at 670 nM.

B2: 2xPDZ3 (two tandem repeats of PDZ3) PDZ3 (protein)
chain: B1 chain
Consider B2, for which the Kd with KQTSV peptide [2] turned out to be 680 nM.
